B1: E3 ubiquitin-protein ligase NHLRC1 (Homo sapiens), Q6VVB1 (parent)
chain: MAAEASESGPALHELMREAEISLLECKVCFEKFGHRQQRRPRNLSCGHVVCLACVAALAHPRTLALECPFCRRACRGCDTSDCLPVLHLIELLGSALRQSPAAHRAAPSAPGALTCHHTFGGWGTLVNPTGLALCPKTGRVVVVHDGRRRVKIFDSGGGCAHQFGEKGDAAQDIRYPVDVTITNDCHVVVTDAGDRSIKVFDFFGQIKLVIGGQFSLPWGVETTPQNGIVVTDAEAGSLHLLDVDFAEGVLRRTERLQAHLCNPRGVAVSWLTGAIAVLEHPLALGTGVCSTRVKVFSSSMQLVGQVDTFGLSLYFPSKITASAVTFDHQGNVIVADTSGPAILCLGKPEEFPVPKPMVTHGLSHPVALTFTKENSLLVLDTASHSIKVYKVDWG
partner: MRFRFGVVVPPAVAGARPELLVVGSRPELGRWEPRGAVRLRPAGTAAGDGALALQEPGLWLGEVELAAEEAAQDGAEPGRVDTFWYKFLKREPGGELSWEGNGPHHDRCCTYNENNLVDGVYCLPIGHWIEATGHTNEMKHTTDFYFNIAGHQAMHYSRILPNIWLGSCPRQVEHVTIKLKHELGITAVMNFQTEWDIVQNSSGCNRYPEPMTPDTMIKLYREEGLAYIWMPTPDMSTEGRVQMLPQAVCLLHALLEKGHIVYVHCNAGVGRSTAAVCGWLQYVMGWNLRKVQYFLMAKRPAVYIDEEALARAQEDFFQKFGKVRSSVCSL

Variants of: B1
Settings: with epm2a_human EPM2A

Row | Variant | effect of a mutation on the interaction
1 | E280K | disrupting interaction
2 | Q302P | disrupting interaction

Variants of: B1
Settings: with epm2a_human EPM2A
Remark: another data set of the same source

Row | Variant | effect of a mutation on the interaction
3 | C26S | decreasing interaction
4 | F33S | decreasing interaction

More lines, now with the values ahead:

Row | effect of a mutation on the interaction | Variant
5 | decreasing interaction | E280K
6 | decreasing interaction | Q302P

Reference: IntAct's records for PubMed 15930137
